Reference: PMC8357417, “CTP and parS coordinate ParB partition complex dynamics and ParA-ATPase activation for ParABS-mediated DNA partitioning” (eLife, 2021)

Tests used:
EcoRI (Escherichia coli) = EcoRI (Escherichia coli) (UniProt P00642); conditions: cited from earlier work
[1] = molecular target: T1, ParAF (F-plasmid (E. coli)) (UniProt P62556)
T1 sequence: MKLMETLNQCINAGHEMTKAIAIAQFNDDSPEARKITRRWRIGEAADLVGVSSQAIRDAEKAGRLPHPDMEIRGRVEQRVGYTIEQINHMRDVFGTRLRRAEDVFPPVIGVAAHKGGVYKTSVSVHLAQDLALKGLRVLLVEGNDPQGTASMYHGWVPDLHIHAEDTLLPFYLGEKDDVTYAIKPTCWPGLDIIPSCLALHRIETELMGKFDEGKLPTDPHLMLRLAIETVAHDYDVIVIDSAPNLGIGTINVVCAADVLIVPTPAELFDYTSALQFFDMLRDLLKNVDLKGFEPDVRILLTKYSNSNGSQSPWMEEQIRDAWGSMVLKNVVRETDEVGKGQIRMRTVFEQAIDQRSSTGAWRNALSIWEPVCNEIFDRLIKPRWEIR

[2] = molecular target: T1, ParAF (F-plasmid (E. coli)); remark: listed apart in the source
ParAF-eGFP [3] = molecular target: T2, ParAF-eGFP (F-plasmid (E. coli), UniProt P62556 1-388); test: TIRF microscopy of fluorescent proteins on an nsDNA carpet; as a1, but the wash buffer contained ATPgammaS and 10 uM ParBF^1-42-mCherry or ParBF^(1-42 R36A)-mCherry; apparent rate constants; conditions: both partners purified
T2 construct: ParA ATPase of the F plasmid (ParAF, also called SopA); SGGG linker between ParAF and eGFP; concentrations and ratios are per monomer; also called SopA; source: E. coli BL21 DE3 AI, purified (HisTrap, Mono Q, S200 size exclusion)
T2 sequence (looked up): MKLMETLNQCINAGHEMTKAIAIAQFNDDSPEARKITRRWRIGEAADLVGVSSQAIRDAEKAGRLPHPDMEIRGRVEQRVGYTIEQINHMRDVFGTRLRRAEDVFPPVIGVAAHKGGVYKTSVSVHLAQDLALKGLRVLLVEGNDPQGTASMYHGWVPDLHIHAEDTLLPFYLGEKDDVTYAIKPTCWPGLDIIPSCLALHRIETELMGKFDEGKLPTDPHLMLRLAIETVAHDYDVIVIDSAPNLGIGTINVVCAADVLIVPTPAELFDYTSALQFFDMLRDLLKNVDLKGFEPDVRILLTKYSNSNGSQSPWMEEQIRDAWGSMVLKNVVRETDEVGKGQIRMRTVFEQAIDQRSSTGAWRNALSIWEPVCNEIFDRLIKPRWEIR

ParAF-eGFP [4] = molecular target: T2, ParAF-eGFP; test: TIRF microscopy of fluorescent proteins on an nsDNA carpet; ParAF-eGFP (1 uM) and labelled ParBF variant (2 uM, or 10 uM for the 1-42-mCherry fusions) preincubated 10 min at room temperature with 1 mM ATPgammaS, infused over an nsDNA carpet, then washed with buffer containing ATPgammaS; no parSF, no C-nucleotide; 300 mM K-glutamate TIRFM buffer pH 7.5; apparent rate constants; conditions: both partners purified
ParAF-eGFP [5] = molecular target: T2, ParAF-eGFP; test: as above; conditions: both partners purified; remark: listed apart in the source
[6] = substrate: Nc1ccn([C@@H]2O[C@H](COP(=O)(O)OP(=O)(O)OP(=O)(O)O)[C@@H](O)[C@H]2O)c(=O)n1; test: phosphate release, MESG/purine nucleoside phosphorylase (EnzChek), initial rates; assay type: biochemical, Escherichia coli; conditions: no parSF DNA, 0.84 μM ParBF, 2 mM MgCl2, 100 mM NaCl, pH 7.5
ParAF-eGFP [7] = molecular target: T2, ParAF-eGFP; test: TIRF microscopy of fluorescent proteins on an nsDNA carpet; as a5, with CTP (2 mM) and the 24 bp parSF fragment (1.1 uM); apparent rate constants; conditions: both partners purified
[8] = molecular target: the molecule itself; test: FRET or BRET; ParBF labelled with Alexa 488 or Alexa 594 mixed at equal concentrations, FRET efficiency in a plate reader; monomer to dimer; apparent KD
ParAF-eGFP [9] = molecular target: T2, ParAF-eGFP; test: TIRF microscopy of fluorescent proteins on an nsDNA carpet; as a6, with CDP instead of CTP, with the 24 bp parSF fragment (1.1 uM); apparent rate constants; conditions: both partners purified
ParAF-eGFP [10] = molecular target: T2, ParAF-eGFP; test: TIRF microscopy of fluorescent proteins on an nsDNA carpet; as a1, with the 24 bp parSF DNA fragment (1.1 uM) in the sample; apparent rate constants; conditions: both partners purified
ParAF-eGFP [11] = molecular target: T2, ParAF-eGFP; test: TIRF microscopy of fluorescent proteins on an nsDNA carpet; as a1, with ATPgammaS (1 mM) and CTP (2 mM), no parSF; wash with ATPgammaS and CTP; apparent rate constants; conditions: both partners purified

EcoRI (from UniProt P00642)
Kd (EcoRI (Escherichia coli)): < 0.02 nM

ParBF^1-42-mCherry-EcoRI^E111Q
ParAF-ATPase stimulation against ParBF^1-42-mCherry-EcoRI^E111Q concentration: K (half) [1]: 0.15 µM | ParAF-ATPase stimulation against ParBF^1-42-mCherry-EcoRI^E111Q concentration: KA (apparent total concentration for half-maximum stimulation); pBR322 nsDNA + EcoRI DNA fragment [2]: 0.16 µM | ParAF-ATPase stimulation against ParBF^1-42-mCherry-EcoRI^E111Q concentration: KA (apparent total concentration for half-maximum stimulation); pBR322 nsDNA + Scram DNA [2]: 0.16 µM

B1: ParBF^1-42-mCherry (domain or fragment, F-plasmid (E. coli))
chain: MKRAPVIPKHTLNTQPVEDTSLSTPAAPMVDSLIARVGVMAR
notes: ParBF^1-42 fused to the N-terminus of mCherry through an SGGG linker; His6 at the C-terminus of the fusion; Monomer by gel filtration; also called monomeric ParBF^1-42-mCherry; source: E. coli BL21 DE3 AI, purified (HisTrap after lysis in 6 M guanidinium chloride, S200 size exclusion); not shown: mCherry, C-terminal, kept
apparent koff from the nsDNA carpet together with ParAF, ParBF^1-42-mCherry in the wash (ParBF signal) (ParAF-eGFP [3]): 0.0148 s⁻¹ | ParAF-ATPase stimulation against ParBF^1-42 concentration: KA (apparent total concentration for half-maximum stimulation); pBR322 nsDNA [2]: 1.2 µM | koff (ParAF-eGFP [4]): 0.105 s⁻¹ | stoichiometry N (ParAF-eGFP [4]): 1.27 ParBF per ParAF (A:B ratio, monomers)

B2: ParBF^(1-42 R36A)-mCherry (domain or fragment, F-plasmid (E. coli))
chain: MKRAPVIPKHTLNTQPVEDTSLSTPAAPMVDSLIAAVGVMAR
notes: SGGG linker between ParBF^(1-42 R36A) and mCherry; His6 at the C-terminus of the fusion; source: E. coli BL21 DE3 AI, purified (HisTrap after lysis in 6 M guanidinium chloride, S200 size exclusion); not shown: mCherry, C-terminal, kept
steady-state density on the DNA carpet relative to ParBF^1-42-mCherry (ParAF-eGFP [5]): < 10% | apparent koff from the nsDNA carpet together with ParAF, ParBF^(1-42 R36A)-mCherry in the wash (ParBF signal) (ParAF-eGFP [3]): 0.03 s⁻¹ | stoichiometry N (ParAF-eGFP [3]): 0.92 ParBF per ParAF (A:B ratio, monomers) | ParAF-ATPase stimulation against ParBF^(1-42 R36A) concentration: KA (apparent total concentration for half-maximum stimulation); pBR322 nsDNA [2]: 108 µM | koff (ParAF-eGFP [4]): 0.867 s⁻¹

B3: ParBF (Escherichia coli K-12) (protein)
chain: MKRAPVIPKHTLNTQPVEDTSLSTPAAPMVDSLIARVGVMARGNAITLPVCGRDVKFTLEVLRGDSVEKTSRVWSGNERDQELLTEDALDDLIPSFLLTGQQTPAFGRRVSGVIEIADGSRRRKAAALTESDYRVLVGELDDEQMAALSRLGNDYRPTSAYERGQRYASRLQNEFAGNISALADAENISRKIITRCINTAKLPKSVVALFSHPGELSARSGDALQKAFTDKEELLKQQASNLHEQKKAGVIFEAEEVITLLTSVLKTSSASRTSLSSRHQFAPGATVLYKGDKMVLNLDRSRVPTECIEKIEAILKELEKPAP
notes: full-length, C-terminal hexa-histidine tag kept, expressed in E. coli BL21 DE3 AI (plasmid pX8); dimer
Km [6]: ~8 µM | kcat [6]: ~0.00389 s⁻¹

B4: ParBF (full-length), ParBF-Alexa647 (natural protein, F-plasmid (E. coli), UniProt P62558 1-323, looked up)
chain: MKRAPVIPKHTLNTQPVEDTSLSTPAAPMVDSLIARVGVMARGNAITLPVCGRDVKFTLEVLRGDSVEKTSRVWSGNERDQELLTEDALDDLIPSFLLTGQQTPAFGRRVSGVIEIADGSRRRKAAALTESDYRVLVGELDDEQMAALSRLGNDYRPTSAYERGQRYASRLQNEFAGNISALADAENISRKIITRCINTAKLPKSVVALFSHPGELSARSGDALQKAFTDKEELLKQQASNLHEQKKAGVIFEAEEVITLLTSVLKTSSASRTSLSSRHQFAPGATVLYKGDKMVLNLDRSRVPTECIEKIEAILKELEKPAP
modifications: Alexa Fluor 647 C2 maleimide label (DNA-carpet TIRFM assays); Alexa 488 or Alexa 594 label (FRET dimerisation assay)
notes: ParB of the F plasmid (ParBF, also called SopB); One molecule for the same construct with different dyes; ATPase and magnetic-tweezers results are printed for 'ParBF' without a dye; concentrations and ratios are per monomer; also called Alexa647-ParBF; WT ParBF; source: E. coli BL21 DE3 AI, purified (HisTrap, Mono S, S200 size exclusion)
apparent koff of the ParAF-ParBF complex from the nsDNA carpet (ParBF signal), with CTP and parSF (ParAF-eGFP [7]): 0.0138 s⁻¹ | stoichiometry N (ParAF-eGFP [7]): 2.16 ParBF per ParAF (A:B ratio, monomers) | Kd [8]: ~18.5 nM | apparent koff of the ParAF-ParBF complex from the nsDNA carpet (ParBF signal), with CDP and parSF (ParAF-eGFP [9]): 0.00883 s⁻¹ | stoichiometry N (ParAF-eGFP [9]): 2.53 ParBF per ParAF (A:B ratio, monomers) | apparent koff of the ParAF-ParBF complex from the nsDNA carpet (ParBF signal), with parSF (ParAF-eGFP [10]): 0.0137 s⁻¹ | stoichiometry N (ParAF-eGFP [10]): 2.17 ParBF per ParAF (A:B ratio, monomers) | apparent koff of the ParAF-ParBF complex from the nsDNA carpet (ParBF signal) (ParAF-eGFP [4]): 0.0148 s⁻¹ | stoichiometry N (ParAF-eGFP [4]): 1.1 ParBF per ParAF (A:B ratio, monomers) | apparent koff of the ParAF-ParBF complex from the nsDNA carpet (ParBF signal), with CTP (ParAF-eGFP [11]): 0.0108 s⁻¹ | stoichiometry N (ParAF-eGFP [11]): 2.16 ParBF per ParAF (A:B ratio, monomers)

B5: ParBF^R121A (natural protein, F-plasmid (E. coli), UniProt P62558 1-323, looked up)
chain: MKRAPVIPKHTLNTQPVEDTSLSTPAAPMVDSLIARVGVMARGNAITLPVCGRDVKFTLEVLRGDSVEKTSRVWSGNERDQELLTEDALDDLIPSFLLTGQQTPAFGRRVSGVIEIADGSARRKAAALTESDYRVLVGELDDEQMAALSRLGNDYRPTSAYERGQRYASRLQNEFAGNISALADAENISRKIITRCINTAKLPKSVVALFSHPGELSARSGDALQKAFTDKEELLKQQASNLHEQKKAGVIFEAEEVITLLTSVLKTSSASRTSLSSRHQFAPGATVLYKGDKMVLNLDRSRVPTECIEKIEAILKELEKPAP
modifications: Alexa Fluor 647 C2 maleimide label (fluorescently labeled ParBF^R121A)
notes: ParB of the F plasmid (ParBF, SopB) with R121A in the Box II region of the CTPase domain; ATPase results are printed without a dye; also called Box II mutant ParBF^R121A; source: E. coli BL21 DE3 AI, purified (HisTrap, Mono S, S200 size exclusion)
apparent koff of the ParAF-ParBF^R121A complex from the nsDNA carpet (ParBF signal), with parSF (ParAF-eGFP [10]): 0.013 s⁻¹ | stoichiometry N (ParAF-eGFP [10]): 1.12 ParBF per ParAF (A:B ratio, monomers) | apparent koff of the ParAF-ParBF^R121A complex from the nsDNA carpet (ParBF signal) (ParAF-eGFP [4]): 0.013 s⁻¹ | stoichiometry N (ParAF-eGFP [4]): 0.99 ParBF per ParAF (A:B ratio, monomers)
